The text below walks through data of patent US20210253698A1 (AFFIMED, published 2021).

The experiment concerns the target T1, biotinylated, recombinant human CD16A(48R-158V) fused to human IgG1 Fc portion (human, UniProt P08637 17-208, limits assumed, biotinylated).
T1 construct: also called soluble CD16A antigen; recombinant human CD16A soluble antigen; not shown: human IgG1 Fc portion
Nature of the experiment: ELISA, antibody coated, soluble biotinylated CD16A-Fc titrated. (In general: ELISA stands for enzyme-linked immunosorbent assay.)

T1 sequence (P08637 17-208 L66R/F176V limits assumed): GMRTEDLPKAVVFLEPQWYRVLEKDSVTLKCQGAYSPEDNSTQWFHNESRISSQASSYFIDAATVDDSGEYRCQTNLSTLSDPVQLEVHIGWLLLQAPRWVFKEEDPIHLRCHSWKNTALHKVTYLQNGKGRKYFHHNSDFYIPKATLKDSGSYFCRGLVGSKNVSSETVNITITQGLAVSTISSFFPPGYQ

B1: scDb-Tribody_01 (other)
VH: QVQLVQSGAEVKKPGESLKVSCKASGYTFTSYYMHWVRQAPGQGLEWMGIINPSGGSTSYAQKFQGRVTMTRDTSTSTVYMELSSLRSEDTAVYYCARGSAYYYDFADYWGQGTLVTVSS
VL: SYVLTQPSSVSVAPGQTATISCGGHNIGSKNVHWYQQRPGQSPVLVIYQDNKRPSGIPERFSGSNSGNTATLTISGTQAMDEADYYCQVWDNYSVLFGGGTKLTVL
notes: Trispecific; LSIV21 scDb VL-VL-VH-VH; HSA(N1) Fab, EGFR; no hinge; no Fc; Chains: anti-CD16A Fv only
As a reminder, the EC50 is the concentration at which the effect is half-maximal. Regarding B1, the EC50 is 0.65 nM.
